Source: IntAct's records for PubMed 23728178

B1: Complement factor H-related protein 1 (Homo sapiens), Q03591 (parent)
chain: MWLLVSVILISRISSVGGEATFCDFPKINHGILYDEEKYKPFSQVPTGEVFYYSCEYNFVSPSKSFWTRITCTEEGWSPTPKCLRLCFFPFVENGHSESSGQTHLEGDTVQIICNTGYRLQNNENNISCVERGWSTPPKCRSTDTSCVNPPTVQNAHILSRQMSKYPSGERVRYECRSPYEMFGDEEVMCLNGNWTEPPQCKDSTGKCGPPPPIDNGDITSFPLSVYAPASSVEYQCQNLYQLEGNKRITCRNGQWSEPPKCLHPCVISREIMENYNIALRWTAKQKLYLRTGESAEFVCKRGYRLSSRSHTLRTTCWDGKLEYPTCAKR
partner: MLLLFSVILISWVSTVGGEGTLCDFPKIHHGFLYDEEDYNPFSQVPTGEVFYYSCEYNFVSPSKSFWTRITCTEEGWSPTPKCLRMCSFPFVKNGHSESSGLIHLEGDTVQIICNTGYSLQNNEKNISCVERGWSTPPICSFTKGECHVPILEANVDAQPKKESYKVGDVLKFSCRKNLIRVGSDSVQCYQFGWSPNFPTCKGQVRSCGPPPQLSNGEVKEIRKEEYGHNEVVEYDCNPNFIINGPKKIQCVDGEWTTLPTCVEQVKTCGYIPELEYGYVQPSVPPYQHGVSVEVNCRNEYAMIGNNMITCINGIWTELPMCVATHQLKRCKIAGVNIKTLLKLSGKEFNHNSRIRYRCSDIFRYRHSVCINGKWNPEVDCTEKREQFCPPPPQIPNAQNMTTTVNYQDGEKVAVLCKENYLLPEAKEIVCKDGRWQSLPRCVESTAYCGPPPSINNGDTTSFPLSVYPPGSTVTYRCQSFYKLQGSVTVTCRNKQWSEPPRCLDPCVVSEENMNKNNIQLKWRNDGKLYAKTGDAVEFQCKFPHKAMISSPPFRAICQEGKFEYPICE
B2: Complement factor H-related protein 1 (Homo sapiens), Q03591 (parent)
chain: B1 chain

Variants of: B1
Details: with fhr5_human CFHR5, Q9BXR6

| effect of a mutation on the interaction | Variant |
| --- | --- |
| with no effect | H157Y;L159V;E175Q |

Variants of: B2
Details: with fhr2_human CFHR2, P36980

| effect of a mutation on the interaction | Variant |
| --- | --- |
| with no effect | H157Y;L159V;E175Q |
